Laboratory results published in paper PMC6374115.

Assay: live-cell confocal, cytosolic distribution
Conditions: glycan lost; control: WT YFP-cryAB

B1: cryAB (crystallin alphaB / HspB5): T170A (protein)
parent chain: MDIAIHHPWIRRPFFPFHSPSRLFDQFFGEHLLESDLFPTSTSLSPFYLRPPSFLRAPSWFDTGLSEMRLEKDRFSVNLDVKHFSPEELKVKVLGDVIEVHGKHEERQDEHGFISREFHRKYRIPADVDPLTITSSLSSDGVLTVNGPRKQVSGPERTIPITREEKPAVTAAPKK
With B1 the localisation_or_trafficking was “changes”.
